Test results from patent US11491212.

B1: FIXa-R338E/T343R/R403E (protein)
chain 1: not shown
chain 2: not shown
B2: FIXa R338E/T343R/E410N (protein)
chain 1: not shown
chain 2: not shown
B3: FIXa K247N/N249S/R338E/T343R/R403E (protein)
chain 1: not shown
chain 2: not shown
B4: FIXa Y155F/K247N/N249S/R338E/T343R/R403E (protein)
chain 1: not shown
chain 2: not shown
B5: FIXa-Y155F/N260S/R318Y/R338E/T343R/R403E/E410N (protein)
chain 1: not shown
chain 2: not shown
B6: FIXa-Y155F/R338E/T343R/R403E (protein)
chain 1: not shown
chain 2: not shown
B7: FIXa-K228N/K247N/N249S/R318Y/R338E/T343R/R403E/E410N (protein)
chain 1: not shown
chain 2: not shown
B8: FIXa-Y155F/I251S/R338E/T343R/R403E (protein)
chain 1: not shown
chain 2: not shown
B9: FIXa K247N/N249S/R338E/T343R/E410N (protein)
chain 1: not shown
chain 2: not shown
B10: FIXa-Y155F/R338E/T343R/R403E/E410S (protein)
chain 1: not shown
chain 2: not shown
B11: FIXa Y155F/K247N/N249S/R338E/T343R/E410N (protein)
chain 1: not shown
chain 2: not shown
B12: FIXa-Y155F/N260S/R338E/T343R/R403E (protein)
chain 1: not shown
chain 2: not shown
B13: FIXa-Y155F/K228N/K247N/N249S/R318Y/R338E/T343R/R403E/E410N (protein)
chain 1: not shown
chain 2: not shown
B14: FIXa Y155F/K247N/N249S/T343R/R403E/E410N (protein)
chain 1: not shown
chain 2: not shown

Molecular target: Factor X, P00742
Sequence (P00742 whole entry, looked up): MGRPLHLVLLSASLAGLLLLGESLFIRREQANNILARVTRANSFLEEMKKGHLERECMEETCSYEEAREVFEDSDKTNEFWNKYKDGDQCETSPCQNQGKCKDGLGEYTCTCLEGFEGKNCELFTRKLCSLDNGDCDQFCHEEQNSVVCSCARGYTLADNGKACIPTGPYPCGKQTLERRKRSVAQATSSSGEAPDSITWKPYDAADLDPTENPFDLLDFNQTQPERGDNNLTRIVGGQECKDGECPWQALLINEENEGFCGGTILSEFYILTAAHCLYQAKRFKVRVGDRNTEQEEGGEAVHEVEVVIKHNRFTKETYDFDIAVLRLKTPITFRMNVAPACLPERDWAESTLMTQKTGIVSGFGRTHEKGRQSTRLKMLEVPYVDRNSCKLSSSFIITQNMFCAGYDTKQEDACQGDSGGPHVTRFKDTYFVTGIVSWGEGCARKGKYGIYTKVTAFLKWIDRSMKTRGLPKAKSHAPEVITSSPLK

Compared with B1, B5 is 1.7-fold higher in KM: 0.0235 µM for the first, 0.0402 µM for the second.

B6 and B7 are within 1.5-fold of each other in KM: 0.0289 µM for the first, 0.0251 µM for the second.

B8 and B10 are within 1.5-fold of each other in KM: 0.0196 µM for the first, 0.0239 µM for the second.

Going from B12 to B13, the KM falls from 0.0692 µM to 0.0368 µM (1.9-fold).

Going from B1 to B2, the kcat/KM falls from 3.1e+08 M⁻¹ s⁻¹ to 9.3e+07 M⁻¹ s⁻¹ (3.3-fold).

B3 and B4 are within 1.5-fold of each other in kcat/KM: 5.6e+08 M⁻¹ s⁻¹ for the first, 5.9e+08 M⁻¹ s⁻¹ for the second.

B5 and B6 are within 1.5-fold of each other in kcat/KM: 1.5e+08 M⁻¹ s⁻¹ for the first, 2e+08 M⁻¹ s⁻¹ for the second.

B7 and B8 are within 1.5-fold of each other in kcat/KM: 4.1e+08 M⁻¹ s⁻¹ for the first, 3e+08 M⁻¹ s⁻¹ for the second.

B9 and B10 are within 1.5-fold of each other in kcat/KM: 3.1e+08 M⁻¹ s⁻¹ for the first, 2.9e+08 M⁻¹ s⁻¹ for the second.

Compared with B11, B12 is 1.9-fold lower in kcat/KM: 1.8e+08 M⁻¹ s⁻¹ for the first, 9.4e+07 M⁻¹ s⁻¹ for the second.

B13 and B14 are within 1.5-fold of each other in kcat/KM: 3e+08 M⁻¹ s⁻¹ for the first, 2.9e+08 M⁻¹ s⁻¹ for the second.

First: B2
Second: B3
The “% of WT kcat/KM” value of the first is lower: 201% for the first, 1215% for the second.

Compared with B4, B9 is lower in “% of WT kcat/KM” value: 1269% for the first, 676% for the second.

Going from B11 to B14, the “% of WT kcat/KM” value rises from 391% to 635%.
